Assay results: patent publication EP2857035B1 (Survac ApS, dated 2017)

Assays:
HLA-A3 = molecular target: T1, HLA-A3 (human); experiment: assembly assay, TAP-deficient cell lysate
T1 construct: MHC class I molecule from cell lysate; immunoprecipitated with mAb W6/32; also called HLA-A*0301

HLA-A11 = molecular target: T2, HLA-A11 (human); experiment: assembly assay, TAP-deficient cell lysate
T2 construct: MHC class I molecule from cell lysate; immunoprecipitated with mAb W6/32; also called HLA-A*1101

HLA-A2 [1] = molecular target: T3, HLA-A2 (human); experiment: assembly assay, TAP-deficient cell lysate
T3 construct: MHC class I molecule without added peptide, from cell lysate; stably folded molecules immunoprecipitated with a conformation-dependent antibody; also called HLA-A*0201; HLA A*0201

HLA-B35 = HLA-B35 (human); experiment: assembly assay, T2-B35 cell lysate, W6/32 IP, IEF gel
HLA-A2 [2] = molecular target: T3, HLA-A2; experiment: assembly assay, T2 cell lysate
HLA-A1 = molecular target: T4, HLA-A1 (human); experiment: assembly assay, TAP-deficient cell lysate
T4 construct: MHC class I molecule; also called HLA-A*0101

B1: Sur 18-27 (peptide)
peptide: RISTFKNWPF
**Q.** Does B1 bind (HLA-A3)?
**A.** no binding

**Q.** Does B1 bind (HLA-A11)?
**A.** no binding (tested: peptide tested at 40, 4, 0.4, 0.04 µM)

B2: Sur103-113 (peptide)
peptide: KLDRERAKNKI
**Q.** Does B2 bind (HLA-A2 [1])?
**A.** no binding

B3: Sur46Y9 (peptide)
peptide: CPTENEPDY
**Q.** With B3 as the binder, how does the C50 (HLA-B35) read?
**A.** 4 µM

B4: Sur6-14 (peptide)
peptide: LPPAWQPFL
notes: also called Survivin6-14
**Q.** For B4, which C50 (HLA-B35) is on record?
**A.** > 100 µM

B5: Sur10 (peptide)
peptide: ETAKKVRRAI
notes: also called Survivin126-135
**Q.** Does B5 bind (HLA-A2 [2])?
**A.** no binding

B6: Sur4-14 (peptide)
peptide: PTLPPAWQPFL
**Q.** Does B6 bind (HLA-A2 [1])?
**A.** no binding

B7: Sur 53-61 (peptide)
peptide: DLAQCFFCF
**Q.** Does B7 bind (HLA-A3)?
**A.** no binding

**Q.** Does B7 bind (HLA-A11)?
**A.** no binding (tested: peptide tested at 40, 4, 0.4, 0.04 µM)

B8: Sur53K9 (peptide)
peptide: DLAQCFFCK
**Q.** Does B8 bind (HLA-A3)?
**A.** no binding

B9: Sur 84-93 (peptide)
peptide: CAFLSVKKQF
**Q.** Does B9 bind (HLA-A3)?
**A.** no binding

**Q.** Does B9 bind (HLA-A11)?
**A.** no binding (tested: peptide tested at 40, 4, 0.4, 0.04 µM)

B10: Sur34-43 (peptide)
peptide: TPERMAEAGF
notes: also called Survivin34-43
**Q.** Does B10 bind (HLA-A1)?
**A.** no binding (tested: peptide tested at 40, 4, 0.4, 0.04 µM)

**Q.** And the C50 (HLA-B35)?
**A.** > 100 µM

B11: sur34Y9 (peptide)
peptide: TPERMAEAGY
**Q.** Does B11 bind (HLA-A1)?
**A.** no binding (tested: peptide tested at 40, 4, 0.4, 0.04 µM)

B12: Sur46-54 (peptide)
peptide: CPTENEPDL
notes: also called Survivin46-54
**Q.** How did the C50 (HLA-B35) turn out when B12 was run?
**A.** 20 µM

B13: Sur2 (peptide)
peptide: RAIEQLAAM
notes: also called Survivin133-141
**Q.** Does B13 bind (HLA-A2 [2])?
**A.** no binding

B14: Sur54-64 (peptide)
peptide: LAQCFFCFKEL
**Q.** Does B14 bind (HLA-A2 [1])?
**A.** no binding

B15: Sur38-46 (peptide)
peptide: MAEAGFIHC
**Q.** Does B15 bind (HLA-A1)?
**A.** no binding (tested: peptide tested at 40, 4, 0.4, 0.04 µM)

B16: Sur14-22 (peptide)
peptide: LKDHRISTF
**Q.** Does B16 bind (HLA-A1)?
**A.** no binding (tested: peptide tested at 40, 4, 0.4, 0.04 µM)

B17: sur14Y9 (peptide)
peptide: LKDHRISTY
**Q.** Does B17 bind (HLA-A1)?
**A.** no binding (tested: peptide tested at 40, 4, 0.4, 0.04 µM)

B18: Sur 101-110 (peptide)
peptide: FLKLDRERAK
**Q.** Does B18 bind (HLA-A3)?
**A.** no binding

**Q.** Does B18 bind (HLA-A11)?
**A.** no binding (tested: peptide tested at 40, 4, 0.4, 0.04 µM)

B19: Sur49-58 (peptide)
peptide: ENEPDLAQCF
**Q.** Does B19 bind (HLA-A1)?
**A.** no binding (tested: peptide tested at 40, 4, 0.4, 0.04 µM)

B20: sur49Y9 (peptide)
peptide: ENEPDLAQCY
**Q.** Does B20 bind (HLA-A1)?
**A.** no binding (tested: peptide tested at 40, 4, 0.4, 0.04 µM)

B21: sur93Y9 (peptide)
peptide: FEELTLGEY
**Q.** Does B21 bind (HLA-A1)?
**A.** no binding (tested: peptide tested at 40, 4, 0.4, 0.04 µM)

B22: sur92Y9 (peptide)
peptide: QFEELTLGEY
**Q.** Does B22 bind (HLA-A1)?
**A.** no binding (tested: peptide tested at 40, 4, 0.4, 0.04 µM)

B23: Sur2b-A3-1 (peptide)
peptide: RITREEHKK
notes: the text says nothing of its origin
**Q.** Does B23 bind (HLA-A3)?
**A.** no binding

B24: Sur7 (peptide)
peptide: TAKKVRRAI
notes: also called Survivin127-135
**Q.** Does B24 bind (HLA-A2 [2])?
**A.** no binding

B25: SurEx3-A3-2 (peptide)
peptide: PTIRRKNLRK
notes: as for B23
**Q.** Does B25 bind (HLA-A3)?
**A.** no binding

B26: Sur5 (peptide)
peptide: SVKKQFEEL
notes: also called Survivin88-96
**Q.** Does B26 bind (HLA-A2 [2])?
**A.** no binding

B27: Sur88-98 (peptide)
peptide: SVKKQFEELTL
**Q.** Does B27 bind (HLA-A2 [1])?
**A.** no binding

B28: Sur51Y9 (peptide)
peptide: EPDLAQCFY
**Q.** B28 was tested. Which C50 (HLA-B35) did it give?
**A.** 1.5 µM

B29: Sur51-59 (peptide)
peptide: EPDLAQCFF
notes: also called Survivin51-59
**Q.** Does B29 bind (HLA-A1)?
**A.** no binding (tested: peptide tested at 40, 4, 0.4, 0.04 µM)

**Q.** What about the C50 (HLA-B35) of the same binder?
**A.** 13 µM

B30: Sur 103-112 (peptide)
peptide: KLDRERAKNK
**Q.** Does B30 bind (HLA-A3)?
**A.** no binding

**Q.** Does B30 bind (HLA-A11)?
**A.** no binding (tested: peptide tested at 40, 4, 0.4, 0.04 µM)

B31: Sur 113-122 (peptide)
peptide: IAKETNNKKK
**Q.** Does B31 bind (HLA-A3)?
**A.** no binding

**Q.** Does B31 bind (HLA-A11)?
**A.** no binding (tested: peptide tested at 40, 4, 0.4, 0.04 µM)

B32: Sur 95-103 (peptide)
peptide: ELTLGEFLK
**Q.** Does B32 bind (HLA-A11)?
**A.** no binding (tested: peptide tested at 40, 4, 0.4, 0.04 µM)

B33: Sur13K9 (peptide)
peptide: FLKDHRISTK
**Q.** Does B33 bind (HLA-A3)?
**A.** no binding

B34: Sur47-56 (peptide)
peptide: PTENEPDLAQ
**Q.** Does B34 bind (HLA-A1)?
**A.** no binding (tested: peptide tested at 40, 4, 0.4, 0.04 µM)
